# B1: BtGH97a (Bacteroides thetaiotaomicron VPI-5482) (protein)
# chain: QQKLTSPDNNLVMTFQVDSKGAPTYELTYKNKVVIKPSTLGLELKKEDNTRTDFDWVDRRDLTKLDSKTNLYDGFEVKDTQTATFDETWQPVWGEEKEIRNHYNELAVTLYQPMNDRSIVIRFRLFNDGLGFRYEFPQQKSLNYFVIKEEHSQFGMNGDHIAFWIPGDYDTQEYDYTISRLSEIRGLMKEAITPNSSQTPFSQTGVQTALMMKTDDGLYINLHEAALVDYSCMHLNLDDKNMVFESWLTPDAKGDKGYMQTPCNTPWRTIIVSDDARNILASRITLNLNEPCKIADAASWVKPVKYIGVWWDMITGKGSWAYTDELTSVKLGETDYSKTKPNGKHSANTANVKRYIDFAAAHGFDAVLVEGWNEGWEDWFGNSKDYVFDFVTPYPDFDVKEIHRYAARKGIKMMMHHETSASVRNYERHMDKAYQFMADNGYNSVKSGYVGNIIPRGEHHYGQWMNNHYLYAVKKAADYKIMVNAHEATRPTGICRTYPNLIGNESARGTEYESFGGNKVYHTTILPFTRLVGGPMDYTPGIFETHCNKMNPANNSQVRSTIARQLALYVTMYSPLQMAADIPENYERFMDAFQFIKDVALDWDETNYLEAEPGEYITIARKAKDTDDWYVGCTAGENGHTSKLVFDFLTPGKQYIATVYADAKDADWKENPQAYTIKKGILTNKSKLNLHAANGGGYAISIKEVKDKSEAKGLKRL
# B2: BtGH97b (Bacteroides thetaiotaomicron VPI-5482) (protein)
# chain: QKQFTLASPDGNLKTTITIGDRLTYDITCNGRQILTPSPISMTLDNGTVWGENAKLSGTSRKSVDEMIPSPFYRASELRNHYNGLTLRFKKDWNVEFRAYNDGIAYRFVNQGKKPFRVVTEVSDYCFPSDMTASVPYVKSGKDGDYNSQFFNSFENTYTTDKLSKLNKQRLMFLPLVVDAGDGVKVCITESDLENYPGLYLSASEGANRLSSMHAPYPKRTVQGGHNQLQMLVKEHEDYIAKVDKPRNFPWRIAVVTTTDKDLAATNLSYLLGAPSRMSDLSWIKPGKVAWDWWNDWNLDGVDFVTGVNNPTYKAYIDFASANGIEYVILDEGWAVNLQADLMQVVKEIDLKELVDYAASKNVGIILWAGYHAFERDMENVCRHYAEMGVKGFKVDFMDRDDQEMTAFNYRAAEMCAKYKLILDLHGTHKPAGLNRTYPNVLNFEGVNGLEQMKWSSPSVDQVKYDVMIPFIRQVSGPMDYTQGAMRNASKGNYYPCYSEPMSQGTRCRQLALYVVFESPFNMLCDTPSNYMREPESTAFIAEIPTVWDESIVLDGKMGEYIVTARRKGDVWYVGGITDWSARDIEVDCSFLGDKSYHATLFKDGVNAHRAGRDYKCESFPIKKDGKLKVHLAPGGGFALKIK
# Legend:
# Details in all cases: Ca2+
# [1] = substrate: OC[C@H]1O[C@H](O[C@H]2[C@H](O)[C@@H](O)C(O)O[C@@H]2CO)[C@H](O)[C@@H](O)[C@@H]1O; experiment: stopped glucose oxidase/peroxidase assay, Michaelis-Menten (KM) with substrate inhibition; type: biochemical, Bacteroides thetaiotaomicron
# [2] = substrate: O=[N+]([O-])c1ccc(O[C@H]2O[C@H](CO)[C@@H](O)[C@H](O)[C@H]2O)cc1; experiment: Michaelis-Menten kinetics (KM) and 1H NMR of hydrolysis; type: biochemical, Bacteroides thetaiotaomicron
# [3] = substrate: OC[C@H]1O[C@H](OC[C@H]2OC(O)[C@H](O)[C@@H](O)[C@@H]2O)[C@H](O)[C@@H](O)[C@H]1O; experiment: purified protein
# [4] = substrate: O=[N+]([O-])c1ccc(O[C@H]2O[C@H](CO)[C@H](O)[C@H](O)[C@H]2O)cc1; experiment: Michaelis-Menten kinetics (KM) and 1H NMR of hydrolysis; type: biochemical, Bacteroides thetaiotaomicron
Protein,Km [1],kcat [1],kcat/Km [1],Km [2],kcat [2],kcat/Km [2],Km [3],kcat [3],kcat/Km [3],Km [4],kcat [4],kcat/Km [4]
B1,2000 ± 400 µM,0.015 ± 0.002 s⁻¹,7.2 M⁻¹ s⁻¹,85 ± 9 µM,53 ± 2 s⁻¹,620000 M⁻¹ s⁻¹,–,–,–,–,–,–
B2,–,–,–,–,–,–,1500 ± 170 µM,0.015 s⁻¹,11 M⁻¹ s⁻¹,230 ± 10 µM,91 ± 2 s⁻¹,391000 M⁻¹ s⁻¹

# — publication PMC2670981, “Divergence of Catalytic Mechanism within a Glycosidase Family Provides Insight into Evolution of Carbohydrate Metabolism by Human Gut Flora” (Chemistry & Biology, 2008)
